Laboratory results reported in the supplement of paper PMC12764529.
± gives the half width of the 95% confidence interval.

Tests used:
[1] = folding stability dG unfold from trypsin proteolysis; higher = more stable
In short: (§1)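 K50 was inferred by Bayesian fitting of sequencing counts obtained after protease digestion of designed mini-proteins. Unfolding free energy was derived by comparison with a sequence-predicted unfolded-state K50 and a shared folded-state K50, for each protease or both combined. The mini-proteins were under 80 residues, had no cysteine, were carried in a PA-tagged cDNA display construct, and were kept only if AlphaFold2 dimer inter-PAE exceeded 15.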

[2] = folding stability dG unfold from chymotrypsin proteolysis; higher = more stable
In short: as §1

[3] = folding stability dG unfold (combined trypsin and chymotrypsin); higher = more stable
In short: as §1

Row | Sequence | folding stability dG unfold [1] [kcal/mol] | folding stability dG unfold [2] [kcal/mol] | folding stability dG unfold [3] [kcal/mol]
1 | SAGGSAGGMLSPEVLEDPEKVIEFLKKMIPGLKIVVPPDAPPEVVEAAAKLAEETGIPVEIVVGSAGGSAGG [r6_129_TrMRF] | 1.06 ± 0.026 | -0.539 ± 0.48 | 0.555 ± 0.18
2 | SAGGSAGGSAGGSMVKVEKNGEGVVTTTTKYFFYPSTGKWSSETITTTKKVPKDEPFPLSAGGSAGGSAGGS [r4_215_JUSTAS] | -0.159 ± 0.14 | -0.0539 ± 0.33 | -0.0856 ± 0.23
3 | SAGGSPLLVLHIRLRRPGEEREIVIPSDLIEDMPLEEIEEILRALPWIDEAEIELEEFPPLRPDELSAGGSA [r2_282_TrMRF] | 1.21 ± 0.026 | 1.98 ± 0.11 | 1.67 ± 0.089
4 | SMSIELDAESIEEIADFLKKAIEDGNPDAKIRIELYPLGGEREEREYDSIDEIIAELKKGPARIRIELEPSA [r9_589_TrMRF] | 1.36 ± 0.037 | 2.29 ± 0.11 | 1.88 ± 0.11
5 | SAGGSISVEELKKLPPDSTLTYTEGDKLYEIKVYKNPEGALSIEITEIDPNTGSPVKTEIVNLEELLSAGGS [r16_763_JUSTAS] | 1.63 ± 0.13 | 3.53 ± 0.075 | 3.21 ± 0.12
6 | SAGGSAGGSADKIEIRVKLKIPNTDEILTFPIWVDPENPEEVAKAIAAWLEKNGYEIESFEGSAGGSAGGSA [r18_3_TrMRF] | 3.53 ± 0.23 | 4.14 ± 0.15 | 3.98 ± 0.16
7 | SAGSSMLDSLTVDTEVTLDPAKGTVLVKTTTTLPDGTVTRTVTTVTVEPLNPPPPPPPRFDPRTGEALESAG [r5_816_JUSTAS] | 0.79 ± 0.082 | 0.207 ± 0.15 | 0.549 ± 0.14
8 | SAGGKFDIMVKVEPPDGKEEELPIKFDSPEEIIEEARAIAEQHGPGDKLKVEIYYPGTGRPIEFEIPSAGGS [r8_107_TrROS] | 0.799 ± 0.043 | -0.17 ± 0.18 | 0.336 ± 0.34
9 | SAGGSAMKKLTIELPDPDITPEEAEKRAREIAEKIAEGNYKVEEIKVEPVDPEKNVYRGTVIIKELSAGGSA [r15_96_JUSTAS] | 0.64 ± 0.13 | 0.365 ± 0.27 | 0.507 ± 0.34
10 | SAGGGMKISTVETKPESDGSIVITIKVYDANGNEIKTYTIPLKGLSNVTITIPVANNPIEVSIPATLSSAGG [r13_427_JUSTAS] | 1.48 ± 0.037 | 2.05 ± 0.078 | 1.84 ± 0.13
11 | SAGAKEITAEELAEIVREFAAALPPDVKEPVTVEITVPLEDGRVLVFKVTVERSPDGVKATVEVSPGASAGG [r19_220_TrMRF] | 2.4 ± 0.13 | 3.43 ± 0.037 | 3.21 ± 0.18
12 | SVIIYMPWDNIPNMLRQLKALAKNGQKPVTIYMPVPEDWRRELREWLDDYGITVEPHPDNDWYKIEIEPKSA [r9_600_TrROS] | 2.54 ± 0.069 | 3.318 ± 0.0095 | 3.09 ± 0.077
13 | SAGGSMPETVKVRVRNADGSLLTLEITRDADGELTVTLEVDGKTVELSLEELEKLPPGVEVVEVEPSAGGSA [r2_431_TrROS_Hall] | 1.9 ± 0.087 | 2.44 ± 0.087 | 2.26 ± 0.18
14 | SMYRIRLPSNKVFTIDVPPDGTVEITLPNGKKLTLKLESEEDILALAEILSKLFPDDPAEIEPIPLEYYRSA [r9_1206_TrMRF] | 1.24 ± 0.042 | 1.53 ± 0.19 | 1.4 ± 0.092
15 | SAGGSAGGPLKVELVKAEILPGNKIIRVYRAELPTETYLAVIELHLNPDGEILSAKIKVYPLPESAGGSAGG [r6_19_TrMRF] | 2.85 ± 0.14 | 3.06 ± 0.052 | 3.06 ± 0.14
16 | SADSVPIKLTFTFEVPEEIYEAAVKAIEDIFKDLGLEVEFEAKAEPGEEGVKVTVELNLTIPPNNPNLISAG [r14_76_TrMRF] | 2.44 ± 0.2 | 3.31 ± 0.096 | 3.07 ± 0.16
17 | SAGGTSPVTIPVTFDDLPPDAVDEAKARAEELAEELRAQGHEVLSVTIEIEPGRVTVTLTVTFPGGAPLSAG [r5_515_JUSTAS] | 1.93 ± 0.081 | 0.623 ± 0.054 | 1.3 ± 0.12
18 | SAGGSAGGSANWYIRIHSPNGQPIWFPMKIKNVTPKGGEIEFKMRNPNGREMPFRVEIFPLESAGGSAGGSA [r18_163_TrROS] | 0.752 ± 0.13 | 1.16 ± 0.22 | 0.981 ± 0.13
19 | SAGGSAVILIPIPPDDPNFWEMIKDFQEEGKPVIIRNPEGEWMVFKPNGPVKPVDSPEQLLEAGITSAGGSA [r15_94_TrROS] | 1.03 ± 0.074 | 0.994 ± 0.16 | 1.04 ± 0.18
20 | SAGGSAGGSMLVEVEYEGGERRTFPLENRSVEEAVEALPEGVTRVRVTVYLGEKPVEFEVERPSAGGSAGGS [r12_767_TrMRF] | 0.271 ± 0.077 | 1.07 ± 0.067 | 0.799 ± 0.052
21 | SAGGSMSTSTLVRREIASVDPETGLRVVRVEVEEVDYGFDPKTGTVLGVSPVSPVSESVLLLPADAPPESAG [r5_903_JUSTAS] | -0.652 ± 0.23 | -0.175 ± 0.22 | -0.286 ± 0.23
